In article PMC7397868, “System-wide analyses of the fission yeast poly(A)+ RNA interactome reveal insights into organization and function of RNA–protein complexes” one finds Kd data, which are given here for one molecule.

This data set has as its target T1, Cdk9;Pch1 (Schizosaccharomyces …, UniProt Q96WV9;O74627 1-591;1-342, |).
T1 sequence 1: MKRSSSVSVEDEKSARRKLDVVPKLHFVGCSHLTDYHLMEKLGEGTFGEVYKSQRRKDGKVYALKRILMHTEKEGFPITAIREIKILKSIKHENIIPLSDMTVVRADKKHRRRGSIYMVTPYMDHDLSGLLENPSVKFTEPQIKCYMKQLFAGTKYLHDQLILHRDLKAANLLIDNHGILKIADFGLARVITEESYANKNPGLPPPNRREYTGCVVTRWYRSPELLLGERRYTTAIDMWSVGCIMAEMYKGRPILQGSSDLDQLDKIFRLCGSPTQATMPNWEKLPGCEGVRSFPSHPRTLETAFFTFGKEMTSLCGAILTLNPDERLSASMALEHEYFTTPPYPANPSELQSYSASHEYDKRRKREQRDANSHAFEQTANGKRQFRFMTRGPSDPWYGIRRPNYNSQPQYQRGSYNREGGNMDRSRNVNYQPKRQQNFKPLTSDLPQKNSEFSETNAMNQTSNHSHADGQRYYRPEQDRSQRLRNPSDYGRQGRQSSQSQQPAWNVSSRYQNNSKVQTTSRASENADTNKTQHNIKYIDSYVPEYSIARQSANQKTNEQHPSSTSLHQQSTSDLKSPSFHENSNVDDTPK
T1 sequence 2: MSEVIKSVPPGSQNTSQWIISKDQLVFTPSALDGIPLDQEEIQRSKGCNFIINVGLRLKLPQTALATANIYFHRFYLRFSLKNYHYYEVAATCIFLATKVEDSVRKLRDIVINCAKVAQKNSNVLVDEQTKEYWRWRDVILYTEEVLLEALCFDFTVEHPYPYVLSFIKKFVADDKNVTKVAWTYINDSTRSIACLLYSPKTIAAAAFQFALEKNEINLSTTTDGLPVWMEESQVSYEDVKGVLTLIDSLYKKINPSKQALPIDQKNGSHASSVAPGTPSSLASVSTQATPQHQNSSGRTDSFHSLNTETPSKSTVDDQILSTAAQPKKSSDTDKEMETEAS
As to the kind of experiment: fluorescence anisotropy; 8 nM RNA; four-parameter logistic fit with Hill slope; 20 mM HEPES 7.5, 150 mM NaCl, 0.5 mM MgCl2, 0.5 mM Mg(OAc)2, 1 mM 2-mercaptoethanol; 20 min at RT, read at 25 C. Particulars: protein: recombinant;recombinant; tags: none stated;N-terminal His-TEV, His-tag cleaved with TEV; copies: 1;1; single strand; heated 5 min at 95 C before use.

The term Kd denotes the constant that tells how readily two partners part at equilibrium. AUUAGUAAAAUAUAUGCAUAAAGACCAGGC (ssRNA) [generic FAM-labeled RNA oligo]: the Kd was determined as 47 ± 1.7 nM.
